Results as given in publication PMC10267100 (Communications Biology, 2023).
Where a chain is given by its changes, count along the chain named. Numbers in names are those of the source. Square brackets hold non-standard residues; d marks the D form. Ends that are not written are not given here. pY = N[C@@H](Cc1ccc(OP(=O)(O)O)cc1)C(=O)O

T1: PTP1B (Homo sapiens, UniProt P18031)
T1 construct: human PTP1B phosphatase domain (residues 2–321) with a GST tag; GST (cleaved yes); made in house; host or cells: E. coli BL21 (DE3)
T1 sequence (P18031 2-321): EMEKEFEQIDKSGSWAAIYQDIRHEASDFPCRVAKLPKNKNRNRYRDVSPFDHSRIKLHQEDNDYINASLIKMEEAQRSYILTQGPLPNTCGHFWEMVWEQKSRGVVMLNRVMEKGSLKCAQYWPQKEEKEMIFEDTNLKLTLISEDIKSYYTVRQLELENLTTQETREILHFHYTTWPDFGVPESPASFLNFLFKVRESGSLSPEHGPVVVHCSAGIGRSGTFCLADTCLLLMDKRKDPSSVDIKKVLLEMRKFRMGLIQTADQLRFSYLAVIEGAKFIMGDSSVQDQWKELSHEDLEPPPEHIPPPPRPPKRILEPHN

T2: IRK pYpY activation loop peptide
T2 peptide: ETD[pY][pY]RKGGKGL

T3: PTP1B phosphatase domain (residues 2-321) D181A/Q262A (human, UniProt P18031 2-321, D181A | Q262A)
T3 construct: Protein tyrosine phosphatase 1B, human, phosphatase domain, residues 2-321, D181A/Q262A; pPROEX vector; no cleavage of the His tag is told; also called PTP1B D181A/Q262A; PTP1B D/Q; source: E. coli BL21 (DE3), purified (nickel resin, size exclusion)
T3 sequence (looked up): T1 sequence (P18031 2-321) with D180A, Q261A

T4: PTP1B phosphatase domain (residues 2-321) C215A/D181A/Q262A triple mutant (human, UniProt P18031 2-321, D181A | C215A | Q262A)
T4 construct: Protein tyrosine phosphatase 1B, human, phosphatase domain, residues 2-321, D181A/C215A/Q262A; pPROEX vector; no cleavage of the His tag is told; also called D181A/Q262A/C215A; PTP1B D/Q/C; source: E. coli BL21 (DE3), purified (nickel resin, size exclusion)
T4 sequence (looked up): T1 sequence (P18031 2-321) with D180A, C214A, Q261A

B1: PTP1B phosphatase domain (residues 2-321) R47A (enzyme)
chain: T1 sequence (P18031 2-321) with R46A
B2: human PTP1B phosphatase domain (residues 2-321), wild type (enzyme, UniProt P18031 2-321, looked up)
chain: T1 sequence (P18031 2-321)
B3: JAK1 pYpY activation loop peptide (peptide)
peptide: AIETDKE[pY][pY]TVKDDLD
notes: printed as AIETDKE[pY][pY]TVKDDLD; In the crystal with PTP1B D181A/Q262A the peptide is seen as the dephosphorylated product; also called JAK1 peptide; source: synthetic peptide
B4: JAK2 YpY activation loop peptide (peptide)
peptide: VLPQDKEY[pY]KVKEPGE
notes: source: synthetic peptide
B5: JAK2 pYpY activation loop peptide (peptide)
peptide: VLPQDKE[pY][pY]KVKEPGE
notes: printed as VLPQDKE[pY][pY]KVKEPGE; In the crystal with PTP1B D181A/Q262A the peptide is seen as the dephosphorylated product; source: synthetic peptide
B6: TYK2 pYpY activation loop peptide (peptide)
peptide: VPEGHE[pY][pY]RVREDGD
notes: printed as VPEGHE[pY][pY]RVREDGD; In the crystal with PTP1B D181A/Q262A the peptide is seen as the dephosphorylated product; source: synthetic peptide
B7: JAK2 pYY activation loop peptide (peptide)
peptide: VLPQDKE[pY]YKVKEPGE
notes: source: synthetic peptide
B8: JAK3 pYpY activation loop peptide (peptide)
peptide: LLPLDKD[pY][pY]VVREPGQ
notes: printed as LLPLDKD[pY][pY]VVREPGQ; In the crystal with PTP1B D181A/Q262A the peptide is seen as the dephosphorylated product; also called JAK3 peptide; source: synthetic peptide

Assays:
[1] = target: T1, PTP1B; experiment: 1H NMR dephosphorylation of activation loop peptides; format: biochemical; settings: bisphosphorylated peptide as substrate, WT PTP1B, Fig. 6c
Description: A Michaelis-Menten analysis of dephosphorylation of JAK2 and IRK activation loop peptides indicated an enhanced dephosphorylation rate for both peptides when in the bisphosphorylated state (Fig. 6a), consistent with previous data on IRK[7]. […] Using ^1H NMR we then measured the dephosphorylation of individual YpY, pYY and YY peptides over time (Supplementary Fig. S5), and similarly, observed an overall preference for bisphosphorylated peptides, however JAK2 YpY was dephosphorylated at a similar rate as the pYpY peptides, highlighting again the preference for this residue by PTP1B (Fig. 6).
Fig. 6 PTP1B preferentially targets different phosphotyrosines in the JAK2 and IRK activation loops. a Michaelis–Menten analysis of PTP1B-induced dephosphorylation via the malachite green assay. Data are from three independent experiments, error bars are SEM. b Dephosphorylation of mono- and bisphosphorylated peptides over time as measured by 1H NMR to determine reaction rate (shown as s-1). c 1H NMR was used to track the dephosphorylation of JAK2 and IRK bisphosphorylated activation loop peptides over time. […]
(§1) Specifically, we measured the appearance of the individual YpY, pYY and YY products over time (Supplementary Fig. S6). […]
0.5 mg of JAK2 or IRK pYpY, pYY and YpY peptides were dissolved in 500 μl of 20 mM Tris (pH 7.5), 2 mM TCEP, and 100 mM NaCl. […] Data was analyzed using TopSpin v3.2 (Bruker). […]

[2] = tested on: PTP1B; settings: peptide with Phe in the −1 position; cited from earlier work
[3] = tested on: PTP1B R47A; experiment: 1H NMR dephosphorylation of bisphosphorylated activation loop peptides; format: biochemical, human; settings: bisphosphorylated peptide as substrate, PTP1B R47A mutant
Description: Fig. 6 PTP1B preferentially targets different phosphotyrosines in the JAK2 and IRK activation loops. a Michaelis–Menten analysis of PTP1B-induced dephosphorylation via the malachite green assay. Data are from three independent experiments, error bars are SEM. b Dephosphorylation of mono- and bisphosphorylated peptides over time as measured by 1H NMR to determine reaction rate (shown as s-1). c 1H NMR was used to track the dephosphorylation of JAK2 and IRK bisphosphorylated activation loop peptides over time. […] Arg47 has an effect on the preference for dephosphorylation of the second phosphotyrosine in JAK2, with loss of selectivity for dephosphorylation of either phosphotyrosine in the R47A PTP1B mutant. […]
as §1
0.5 mg of JAK2 or IRK pYpY, pYY and YpY peptides were dissolved in 500 μl of 20 mM Tris (pH 7.5), 2 mM TCEP, and 100 mM NaCl. […] To start the dephosphorylation reaction, 2 nM PTP1B was added to each sample and multiple 1H NMR spectra were recorded over the course of 1 h. Data was analyzed using TopSpin v3.2 (Bruker). The concentration of each species of ALP (pYpY, pYY, or YpY) in the reaction was calculated by integrating the area under the peak and normalising these values to the starting peptide concentration.

[4] = target: B5
[5] = target: T2, IRK pYpY activation loop peptide; experiment: cell-based or functional assay
[6] = target: B5; experiment: cell-based or functional assay
[7] = target: T3, PTP1B phosphatase domain (residues …); experiment: crystal structure; PTP1B D181A/Q262A co-crystallised with a 2-fold excess of bisphosphorylated peptide; the tyrosyl-peptide product and free phosphate are seen in the active site; settings: both partners purified
[8] = target: T4, PTP1B phosphatase domain (residues …); experiment: crystal structure; catalytically dead PTP1B D181A/Q262A/C215A co-crystallised with a 2-fold excess of phosphopeptide; substrate-bound; settings: both partners purified

| binding result [7] | binding result [8] | Molecule | also measured |
| --- | --- | --- | --- |
| – | – | ETD[pY][pY]RKGGKGL [IRK pYpY] | preference for dephosphorylation of the first pTyr over the second ([1]; 1H NMR tracking of products): ~ 1.6 fold |
| – | – | ELEFpYMDYE [peptide of PDB 1EEO with Phe in the −1 position, literature PTP1B substrate] | substrate quality for PTP1B [2]: potent PTP1B substrate |
| – | – | VLPQDKE[pY][pY]KVKEPGE [JAK2 pYpY] | rate of dephosphorylation of the second pTyr relative to the first ([1]; 1H NMR tracking of pYY and YpY products): ~ 3 fold; preference for dephosphorylation of the second pTyr over the first [3]: 1.3 fold |
| – | – | B1 | preference for dephosphorylation of the second pTyr against the first in the bisphosphorylated peptide, followed by 1H NMR [4]: 1.3 fold |
| – | – | B2 | preference for dephosphorylation of the first pTyr against the second in the bisphosphorylated peptide, followed by 1H NMR [5]: ~1.6 fold; rate of dephosphorylation of the second pTyr against the first in the bisphosphorylated peptide, followed by 1H NMR [6]: ~3 fold |
| binds | – | B3 | – |
| – | binds | B4 | – |
| binds | binds | B5 | – |
| binds | binds | B6 | – |
| – | binds | B7 | – |
| binds | – | B8 | – |
